Measurements as given in PMC5498496.

Columns and labels:
[1] = αIIbβ3 cell surface expression, flow cytometry; details: glycan lost; control: wild-type αIIb with β3
[2] = eptifibatide-induced mAb binding, flow cytometry; details: glycan lost; control: wild-type αIIb with β3
[3] = surface expression by mAbs 10E5, AP2, AP3, flow cytometry; details: glycan lost; control: wild-type αIIbβ3
[4] = β3-K716A-mediated mAb binding, flow cytometry; details: glycan lost; control: wild-type αIIb with active β3-K716A

Substance	expression_or_secretion [1]	structure_or_conformation [2]	further results
integrin αIIb subunit: αIIb-N680Q	decreases	–	–
integrin αIIb subunit: αIIb-N931S	–	no change	–
integrin αIIb subunit: αIIb-N249Q	decreases	–	–
integrin αIIb subunit: αIIb-N15S	–	no change	expression_or_secretion [3]: no change
integrin αIIb subunit: αIIb-N570Q	decreases	–	–
integrin αIIb subunit: αIIb-N249S	–	no change	structure_or_conformation [4]: no change
integrin αIIb subunit: αIIb-N931Q	decreases	–	–
integrin αIIb subunit: αIIb-N15Q	no change	–	–
